B1: THAP1; numbered along this chain (parent)
chain: MVQSCSAYGCKNRYDKDKPVSFHKFPLTRPSLCKEWEAAVRRKNFKPTKYSSICSEHFTPDCFKRECNNKLLKENAVPTIFLCTEPHDKKEDLLEPQEQLPPPPLPPPVSQVDAAIGLLMPPLQTPVNLSVFCDHNYTVEDTMHQRKRIHQLEQQVEKLRKKLKTAQQRCRRQERQLEKLKEVVHFQKEKDDVSERGYVILPNDYFEIVEVPA

Variants of: B1
Experiment: THAP1 transcriptional activity (GFP+/GFP- enrichment relative to wild-type constructs) (ratio to WT); higher = more THAP1 activity (PSMB5 reporter activation)
Settings: with PSMB5 promoter-GFP reporter
How it was run: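 Variants were counted by Illumina sequencing of genomic DNA amplicons from BFP+ cells sorted into GFP-bright and GFP-dim bins five days after lentiviral transduction, in duplicate at MOI ~0.3. The library changed each of residues 2–213 of human THAP1 to all 20 amino acids and was introduced into THAP1-knockout HEK-293T cells with mClover3 knocked in at endogenous PSMB5. Activity equals the replicate-mean bright/dim read fold change over the mean of wild-type synonymous constructs.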

| Variant | THAP1 transcriptional activity |
| --- | --- |
| MVQSCSAYGCKNRYDKDKPVSFHKFPLTRPSLCKEWEAAVRRKNFKPTKYSSICSEHFTPDCFKRECNNKLLKENAVPTIFLCTEPHKKKEDLLEPQEQLPPPPLPPPVSQVDAAIGLLMPPLQTPVNLSVFCDHNYTVEDTMHQRKRIHQLEQQVEKLRKKLKTAQQRCRRQERQLEKLKEVVHFQKEKDDVSERGYVILPNDYFEIVEVPA [D88K] | 1.56 |
| MVQSCSAYGCKNRYDKDKPVSFHKFPLTRPSLCKEWEAAVRRKNFKPTKYSSICSEHFTPDCFKRECNNKLLKENAVPTIFLCTEPHWKKEDLLEPQEQLPPPPLPPPVSQVDAAIGLLMPPLQTPVNLSVFCDHNYTVEDTMHQRKRIHQLEQQVEKLRKKLKTAQQRCRRQERQLEKLKEVVHFQKEKDDVSERGYVILPNDYFEIVEVPA [D88W] | 0.937 |
| MVQSCSAYGCKNRYDKDKPVSFHKFPLTRPSLCKEWEAAVRRKNFKPTKYSSICSEHFTPDCFKRECNNKLLKENAVPTIFLCTEPHLKKEDLLEPQEQLPPPPLPPPVSQVDAAIGLLMPPLQTPVNLSVFCDHNYTVEDTMHQRKRIHQLEQQVEKLRKKLKTAQQRCRRQERQLEKLKEVVHFQKEKDDVSERGYVILPNDYFEIVEVPA [D88L] | 1.3 |
| MVQSCSAYGCKNRYDKDKPVSFHKFPLTRPSLCKEWEAAVRRKNFKPTKYSSICSEHFTPDCFKRECNNKLLKENAVPTIFLCTEPHYKKEDLLEPQEQLPPPPLPPPVSQVDAAIGLLMPPLQTPVNLSVFCDHNYTVEDTMHQRKRIHQLEQQVEKLRKKLKTAQQRCRRQERQLEKLKEVVHFQKEKDDVSERGYVILPNDYFEIVEVPA [D88Y] | 0.858 |
| MVQSCSAYGCKNRYDKDKPVSFHKFPLTRPSLCKEWEAAVRRKNFKPTKYSSICSEHFTPDCFKRECNNKLLKENAVPTIFLCTEPHHKKEDLLEPQEQLPPPPLPPPVSQVDAAIGLLMPPLQTPVNLSVFCDHNYTVEDTMHQRKRIHQLEQQVEKLRKKLKTAQQRCRRQERQLEKLKEVVHFQKEKDDVSERGYVILPNDYFEIVEVPA [D88H] | 0.413 |
| MVQSCSAYGCKNRYDKDKPVSFHKFPLTRPSLCKEWEAAVRRKNFKPTKYSSICSEHFTPDCFKRECNNKLLKENAVPTIFLCTEPHEKKEDLLEPQEQLPPPPLPPPVSQVDAAIGLLMPPLQTPVNLSVFCDHNYTVEDTMHQRKRIHQLEQQVEKLRKKLKTAQQRCRRQERQLEKLKEVVHFQKEKDDVSERGYVILPNDYFEIVEVPA [D88E] | 1.04 |
| MVQSCSAYGCKNRYDKDKPVSFHKFPLTRPSLCKEWEAAVRRKNFKPTKYSSICSEHFTPDCFKRECNNKLLKENAVPTIFLCTEPHQKKEDLLEPQEQLPPPPLPPPVSQVDAAIGLLMPPLQTPVNLSVFCDHNYTVEDTMHQRKRIHQLEQQVEKLRKKLKTAQQRCRRQERQLEKLKEVVHFQKEKDDVSERGYVILPNDYFEIVEVPA [D88Q] | 1.12 |
| MVQSCSAYGCKNRYDKDKPVSFHKFPLTRPSLCKEWEAAVRRKNFKPTKYSSICSEHFTPDCFKRECNNKLLKENAVPTIFLCTEPHTKKEDLLEPQEQLPPPPLPPPVSQVDAAIGLLMPPLQTPVNLSVFCDHNYTVEDTMHQRKRIHQLEQQVEKLRKKLKTAQQRCRRQERQLEKLKEVVHFQKEKDDVSERGYVILPNDYFEIVEVPA [D88T] | 0.582 |
| MVQSCSAYGCKNRYDKDKPVSFHKFPLTRPSLCKEWEAAVRRKNFKPTKYSSICSEHFTPDCFKRECNNKLLKENAVPTIFLCTEPHAKKEDLLEPQEQLPPPPLPPPVSQVDAAIGLLMPPLQTPVNLSVFCDHNYTVEDTMHQRKRIHQLEQQVEKLRKKLKTAQQRCRRQERQLEKLKEVVHFQKEKDDVSERGYVILPNDYFEIVEVPA [D88A] | 0.554 |
| MVQSCSAYGCKNRYDKDKPVSFHKFPLTRPSLCKEWEAAVRRKNFKPTKYSSICSEHFTPDCFKRECNNKLLKENAVPTIFLCTEPHIKKEDLLEPQEQLPPPPLPPPVSQVDAAIGLLMPPLQTPVNLSVFCDHNYTVEDTMHQRKRIHQLEQQVEKLRKKLKTAQQRCRRQERQLEKLKEVVHFQKEKDDVSERGYVILPNDYFEIVEVPA [D88I] | 0.371 |
| MVQSCSAYGCKNRYDKDKPVSFHKFPLTRPSLCKEWEAAVRRKNFKPTKYSSICSEHFTPDCFKRECNNKLLKENAVPTIFLCTEPHSKKEDLLEPQEQLPPPPLPPPVSQVDAAIGLLMPPLQTPVNLSVFCDHNYTVEDTMHQRKRIHQLEQQVEKLRKKLKTAQQRCRRQERQLEKLKEVVHFQKEKDDVSERGYVILPNDYFEIVEVPA [D88S] | 1.92 |
| MVQSCSAYGCKNRYDKDKPVSFHKFPLTRPSLCKEWEAAVRRKNFKPTKYSSICSEHFTPDCFKRECNNKLLKENAVPTIFLCTEPHCKKEDLLEPQEQLPPPPLPPPVSQVDAAIGLLMPPLQTPVNLSVFCDHNYTVEDTMHQRKRIHQLEQQVEKLRKKLKTAQQRCRRQERQLEKLKEVVHFQKEKDDVSERGYVILPNDYFEIVEVPA [D88C] | 0.815 |
| MVQSCSAYGCKNRYDKDKPVSFHKFPLTRPSLCKEWEAAVRRKNFKPTKYSSICSEHFTPDCFKRECNNKLLKENAVPTIFLCTEPHMKKEDLLEPQEQLPPPPLPPPVSQVDAAIGLLMPPLQTPVNLSVFCDHNYTVEDTMHQRKRIHQLEQQVEKLRKKLKTAQQRCRRQERQLEKLKEVVHFQKEKDDVSERGYVILPNDYFEIVEVPA [D88M] | 0.615 |
| MVQSCSAYGCKNRYDKDKPVSFHKFPLTRPSLCKEWEAAVRRKNFKPTKYSSICSEHFTPDCFKRECNNKLLKENAVPTIFLCTEPHVKKEDLLEPQEQLPPPPLPPPVSQVDAAIGLLMPPLQTPVNLSVFCDHNYTVEDTMHQRKRIHQLEQQVEKLRKKLKTAQQRCRRQERQLEKLKEVVHFQKEKDDVSERGYVILPNDYFEIVEVPA [D88V] | 0.781 |
| MVQSCSAYGCKNRYDKDKPVSFHKFPLTRPSLCKEWEAAVRRKNFKPTKYSSICSEHFTPDCFKRECNNKLLKENAVPTIFLCTEPHNKKEDLLEPQEQLPPPPLPPPVSQVDAAIGLLMPPLQTPVNLSVFCDHNYTVEDTMHQRKRIHQLEQQVEKLRKKLKTAQQRCRRQERQLEKLKEVVHFQKEKDDVSERGYVILPNDYFEIVEVPA [D88N] | 0.665 |
| MVQSCSAYGCKNRYDKDKPVSFHKFPLTRPSLCKEWEAAVRRKNFKPTKYSSICSEHFTPDCFKRECNNKLLKENAVPTIFLCTEPHFKKEDLLEPQEQLPPPPLPPPVSQVDAAIGLLMPPLQTPVNLSVFCDHNYTVEDTMHQRKRIHQLEQQVEKLRKKLKTAQQRCRRQERQLEKLKEVVHFQKEKDDVSERGYVILPNDYFEIVEVPA [D88F] | 0.918 |
| MVQSCSAYGCKNRYDKDKPVSFHKFPLTRPSLCKEWEAAVRRKNFKPTKYSSICSEHFTPDCFKRECNNKLLKENAVPTIFLCTEPHDEKEDLLEPQEQLPPPPLPPPVSQVDAAIGLLMPPLQTPVNLSVFCDHNYTVEDTMHQRKRIHQLEQQVEKLRKKLKTAQQRCRRQERQLEKLKEVVHFQKEKDDVSERGYVILPNDYFEIVEVPA [K89E] | 1.6 |
| MVQSCSAYGCKNRYDKDKPVSFHKFPLTRPSLCKEWEAAVRRKNFKPTKYSSICSEHFTPDCFKRECNNKLLKENAVPTIFLCTEPHDDKEDLLEPQEQLPPPPLPPPVSQVDAAIGLLMPPLQTPVNLSVFCDHNYTVEDTMHQRKRIHQLEQQVEKLRKKLKTAQQRCRRQERQLEKLKEVVHFQKEKDDVSERGYVILPNDYFEIVEVPA [K89D] | 1.33 |
| MVQSCSAYGCKNRYDKDKPVSFHKFPLTRPSLCKEWEAAVRRKNFKPTKYSSICSEHFTPDCFKRECNNKLLKENAVPTIFLCTEPHDCKEDLLEPQEQLPPPPLPPPVSQVDAAIGLLMPPLQTPVNLSVFCDHNYTVEDTMHQRKRIHQLEQQVEKLRKKLKTAQQRCRRQERQLEKLKEVVHFQKEKDDVSERGYVILPNDYFEIVEVPA [K89C] | 1.4 |
| MVQSCSAYGCKNRYDKDKPVSFHKFPLTRPSLCKEWEAAVRRKNFKPTKYSSICSEHFTPDCFKRECNNKLLKENAVPTIFLCTEPHDAKEDLLEPQEQLPPPPLPPPVSQVDAAIGLLMPPLQTPVNLSVFCDHNYTVEDTMHQRKRIHQLEQQVEKLRKKLKTAQQRCRRQERQLEKLKEVVHFQKEKDDVSERGYVILPNDYFEIVEVPA [K89A] | 0.888 |
| MVQSCSAYGCKNRYDKDKPVSFHKFPLTRPSLCKEWEAAVRRKNFKPTKYSSICSEHFTPDCFKRECNNKLLKENAVPTIFLCTEPNDKKEDLLEPQEQLPPPPLPPPVSQVDAAIGLLMPPLQTPVNLSVFCDHNYTVEDTMHQRKRIHQLEQQVEKLRKKLKTAQQRCRRQERQLEKLKEVVHFQKEKDDVSERGYVILPNDYFEIVEVPA [H87N] | 2.68 |
| MVQSCSAYGCKNRYDKDKPVSFHKFPLTRPSLCKEWEAAVRRKNFKPTKYSSICSEHFTPDCFKRECNNKLLKENAVPTIFLCTEPRDKKEDLLEPQEQLPPPPLPPPVSQVDAAIGLLMPPLQTPVNLSVFCDHNYTVEDTMHQRKRIHQLEQQVEKLRKKLKTAQQRCRRQERQLEKLKEVVHFQKEKDDVSERGYVILPNDYFEIVEVPA [H87R] | 1.11 |
| MVQSCSAYGCKNRYDKDKPVSFHKFPLTRPSLCKEWEAAVRRKNFKPTKYSSICSEHFTPDCFKRECNNKLLKENAVPTIFLCTEPSDKKEDLLEPQEQLPPPPLPPPVSQVDAAIGLLMPPLQTPVNLSVFCDHNYTVEDTMHQRKRIHQLEQQVEKLRKKLKTAQQRCRRQERQLEKLKEVVHFQKEKDDVSERGYVILPNDYFEIVEVPA [H87S] | 2.01 |
| MVQSCSAYGCKNRYDKDKPVSFHKFPLTRPSLCKEWEAAVRRKNFKPTKYSSICSEHFTPDCFKRECNNKLLKENAVPTIFLCTEPPDKKEDLLEPQEQLPPPPLPPPVSQVDAAIGLLMPPLQTPVNLSVFCDHNYTVEDTMHQRKRIHQLEQQVEKLRKKLKTAQQRCRRQERQLEKLKEVVHFQKEKDDVSERGYVILPNDYFEIVEVPA [H87P] | 3.55 |
| MVQSCSAYGCKNRYDKDKPVSFHKFPLTRPSLCKEWEAAVRRKNFKPTKYSSICSEHFTPDCFKRECNNKLLKENAVPTIFLCTEPVDKKEDLLEPQEQLPPPPLPPPVSQVDAAIGLLMPPLQTPVNLSVFCDHNYTVEDTMHQRKRIHQLEQQVEKLRKKLKTAQQRCRRQERQLEKLKEVVHFQKEKDDVSERGYVILPNDYFEIVEVPA [H87V] | 1.56 |
| MVQSCSAYGCKNRYDKDKPVSFHKFPLTRPSLCKEWEAAVRRKNFKPTKYSSICSEHFTPDCFKRECNNKLLKENAVPTIFLCTEPTDKKEDLLEPQEQLPPPPLPPPVSQVDAAIGLLMPPLQTPVNLSVFCDHNYTVEDTMHQRKRIHQLEQQVEKLRKKLKTAQQRCRRQERQLEKLKEVVHFQKEKDDVSERGYVILPNDYFEIVEVPA [H87T] | 2.56 |
| MVQSCSAYGCKNRYDKDKPVSFHKFPLTRPSLCKEWEAAVRRKNFKPTKYSSICSEHFTPDCFKRECNNKLLKENAVPTIFLCTEPWDKKEDLLEPQEQLPPPPLPPPVSQVDAAIGLLMPPLQTPVNLSVFCDHNYTVEDTMHQRKRIHQLEQQVEKLRKKLKTAQQRCRRQERQLEKLKEVVHFQKEKDDVSERGYVILPNDYFEIVEVPA [H87W] | 1.17 |
| MVQSCSAYGCKNRYDKDKPVSFHKFPLTRPSLCKEWEAAVRRKNFKPTKYSSICSEHFTPDCFKRECNNKLLKENAVPTIFLCTEPYDKKEDLLEPQEQLPPPPLPPPVSQVDAAIGLLMPPLQTPVNLSVFCDHNYTVEDTMHQRKRIHQLEQQVEKLRKKLKTAQQRCRRQERQLEKLKEVVHFQKEKDDVSERGYVILPNDYFEIVEVPA [H87Y] | 1.16 |
